{"source": "patent US20250313644A1", "about": "(FUTUREGEN BIOPHARMACEUTICAL BEIJING, published 2025)", "binders": {"B1": {"name": "single-arm antibody M701-3973 (antibody, human IgG1, kappa, L234A L235A)", "heavy": "ELQLQESGPGLVKPSETLSLTCAVSGVSFSDYHWAWIRQPPGKGLEWIGDINHRGHTNYNPSLKSRVTVSIDTSKNQFSLKLSSVTAADTAVYFCARDFPNFIFDFWGQGTLVTVSSASTKGPSVFPLAPSSKSTSGGTAALGCLVKDYFPEPVTVSWNSGALTSGVHTFPAVLQSSGLYSLSSVVTVPSSSLGTQTYICNVNHKPSNTKVDKKVEPKSCDKTHTCPPCPAPEAAGGPSVFLFPPKPKDTLMISRTPEVTCVVVDVSHEDPEVKFNWYVDGVEVHNAKTKPREEQYNSTYRVVSVLTVLHQDWLNGKEYKCKVSNKALGAPIEKTISKAKGQPREPQVYTLPPCREEMTKNQVSLWCLVKGFYPSDIAVEWESNGQPENNYKTTPPVLDSDGSFFLYSKLTVDKSRWQQGNVFSCSVMHEALHNHYTQKSLSLSPG", "light": "not shown", "chain": "DKTHTCPPCPAPEAAGGPSVFLFPPKPKDTLMISRTPEVTCVVVDVSHEDPEVKFNWYVDGVEVHNAKTKPREEQYNSTYRVVSVLTVLHQDWLNGKEYKCKVSNKALGAPIEKTISKAKGQPREPQVCTLPPSREEMTKNQVSLSCAVKGFYPSDIAVEWESNGQPENNYKTTPPVLDSDGSFFLVSKLTVDKSRWQQGNVFSCSVMHEALHNHYTQKSLSLSPG"}}, "key": {"human TL1A (HuTL1A) [1]": {"molecular_target": "T1, human TL1A (HuTL1A) (human, UniProt O95150 57-251, limits assumed, biotin-labelled in some assays (site not stated))", "T1 construct": "Expressed in EXPI-293 cells and purified by Ni-NTA (His-tag); Described as a trimeric antigen; also called TL1A antigen; WT", "T1 sequence": "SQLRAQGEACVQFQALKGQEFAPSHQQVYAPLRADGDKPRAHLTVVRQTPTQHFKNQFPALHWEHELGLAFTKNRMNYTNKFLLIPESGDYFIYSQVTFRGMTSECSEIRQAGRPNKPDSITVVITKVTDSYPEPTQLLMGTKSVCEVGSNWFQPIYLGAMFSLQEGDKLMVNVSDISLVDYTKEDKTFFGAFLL", "assay": "BLI (Gator) on WT antigen (3907)"}, "[2]": {"molecular_target": "T2, HuTL1A mutant E120A (mutant number 4138) (human, UniProt O95150 57-251, limits assumed)", "T2 construct": "whole entry named", "T2 chain": "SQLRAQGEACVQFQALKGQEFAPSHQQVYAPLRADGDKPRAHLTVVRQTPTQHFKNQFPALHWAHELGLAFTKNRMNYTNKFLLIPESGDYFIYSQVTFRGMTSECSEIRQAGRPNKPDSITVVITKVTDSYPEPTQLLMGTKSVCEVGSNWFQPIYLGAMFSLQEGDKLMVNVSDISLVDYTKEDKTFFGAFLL", "assay": "BLI (Gator) on antigen mutant E120A"}, "[3]": {"molecular_target": "T3, HuTL1A mutant H118A (mutant number 4137) (human, UniProt O95150 57-251, limits assumed)", "T3 construct": "whole entry named", "T3 chain": "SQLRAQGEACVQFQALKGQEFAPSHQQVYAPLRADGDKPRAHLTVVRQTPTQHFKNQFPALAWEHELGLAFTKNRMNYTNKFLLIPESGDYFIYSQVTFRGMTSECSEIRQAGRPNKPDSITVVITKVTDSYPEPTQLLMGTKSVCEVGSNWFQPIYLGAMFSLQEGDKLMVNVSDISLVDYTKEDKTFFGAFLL", "assay": "BLI (Gator) on antigen mutant H118A"}, "[4]": {"molecular_target": "T4, HuTL1A mutant K240A (mutant number 4136) (human, UniProt O95150 57-251, limits assumed)", "T4 construct": "whole entry named", "T4 chain": "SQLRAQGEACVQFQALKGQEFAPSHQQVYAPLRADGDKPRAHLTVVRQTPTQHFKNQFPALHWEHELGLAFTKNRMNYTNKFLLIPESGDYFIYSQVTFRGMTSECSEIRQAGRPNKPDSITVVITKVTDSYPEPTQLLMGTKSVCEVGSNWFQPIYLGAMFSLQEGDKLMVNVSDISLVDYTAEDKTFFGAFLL", "assay": "BLI (Gator) on antigen mutant K240A"}, "[5]": {"molecular_target": "T5, HuTL1A mutant S234A (mutant number 4133) (human, UniProt O95150 57-251, limits assumed)", "T5 construct": "whole entry named", "T5 chain": "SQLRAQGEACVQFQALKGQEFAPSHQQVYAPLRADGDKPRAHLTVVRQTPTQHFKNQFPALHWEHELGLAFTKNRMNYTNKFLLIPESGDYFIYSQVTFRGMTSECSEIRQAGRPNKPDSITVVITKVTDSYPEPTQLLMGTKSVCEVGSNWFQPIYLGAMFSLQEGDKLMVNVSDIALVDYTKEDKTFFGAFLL", "assay": "BLI (Gator) on antigen mutant S234A"}, "[6]": {"molecular_target": "T6, HuTL1A mutant T105A (mutant number 4140) (human, UniProt O95150 57-251, limits assumed)", "T6 construct": "whole entry named", "T6 chain": "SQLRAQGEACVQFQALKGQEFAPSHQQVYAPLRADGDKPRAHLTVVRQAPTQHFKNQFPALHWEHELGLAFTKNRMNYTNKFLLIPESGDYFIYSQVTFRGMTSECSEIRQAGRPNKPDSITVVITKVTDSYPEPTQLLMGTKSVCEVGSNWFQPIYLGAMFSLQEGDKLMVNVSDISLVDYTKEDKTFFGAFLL", "assay": "BLI (Gator) on antigen mutant T105A"}, "[7]": {"molecular_target": "T7, HuTL1A mutant T239A (mutant number 4135) (human, UniProt O95150 57-251, limits assumed)", "T7 construct": "whole entry named", "T7 chain": "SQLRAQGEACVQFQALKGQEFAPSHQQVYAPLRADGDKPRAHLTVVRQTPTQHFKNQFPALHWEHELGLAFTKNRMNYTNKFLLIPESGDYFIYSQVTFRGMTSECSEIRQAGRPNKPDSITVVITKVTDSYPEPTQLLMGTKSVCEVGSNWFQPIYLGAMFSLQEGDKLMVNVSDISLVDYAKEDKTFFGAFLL", "assay": "BLI (Gator) on antigen mutant T239A"}, "[8]": {"molecular_target": "T8, HuTL1A mutant V102A (mutant number 4139) (human, UniProt O95150 57-251, limits assumed)", "T8 construct": "whole entry named", "T8 chain": "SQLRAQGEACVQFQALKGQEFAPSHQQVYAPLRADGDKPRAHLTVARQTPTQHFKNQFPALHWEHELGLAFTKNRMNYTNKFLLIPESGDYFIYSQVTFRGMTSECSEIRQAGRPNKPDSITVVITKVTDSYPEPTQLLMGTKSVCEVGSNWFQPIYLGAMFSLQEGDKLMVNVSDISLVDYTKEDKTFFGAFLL", "assay": "BLI (Gator) on antigen mutant V102A"}, "[9]": {"molecular_target": "T9, HuTL1A mutant Y238A (mutant number 4134) (human, UniProt O95150 57-251, limits assumed)", "T9 construct": "whole entry named", "T9 chain": "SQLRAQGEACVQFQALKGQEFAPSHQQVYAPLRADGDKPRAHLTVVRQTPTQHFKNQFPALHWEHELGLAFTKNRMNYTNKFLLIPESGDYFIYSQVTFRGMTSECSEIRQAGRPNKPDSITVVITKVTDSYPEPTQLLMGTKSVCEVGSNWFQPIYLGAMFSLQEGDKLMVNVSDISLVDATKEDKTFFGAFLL", "assay": "BLI (Gator) on antigen mutant Y238A"}, "human TL1A (HuTL1A) [10]": {"molecular_target": "T1, human TL1A (HuTL1A)", "assay": "BLI (Gator), His-tagged TL1A on anti-His probe, pH 7.4", "procedure": "(§1) Then a serial dilutions of single-arm M701 antibodies and control antibodies were added."}, "[11]": {"molecular_target": "T10, cynomolgus monkey/rhesus monkey TL1A (cynomolgus monkey/rhesus monkey)", "T10 construct": "also called Cynomolgus/rhesus monkey TL1A", "assay": "BLI (Gator), His-tagged TL1A on anti-His probe, pH 7.4", "procedure": "as §1"}, "human TL1A (HuTL1A) [12]": {"molecular_target": "T1, human TL1A (HuTL1A)", "assay": "BLI (Gator), biotin-HuTL1A on SA probe, pH 7.4; BLI (Gator), pH 7.4", "procedure": "The binding kinetics between monoclonal antibodies and antigens was measured using Gator, a label-free biomolecule interaction analyzer based on the principle of biolayer interference (BLI). […] Then a serial dilutions of single-arm M701 antibodies and control antibodies were added. The antibodies interacted with the antigen captured by the SA probe, and the interaction was analyzed by detecting the signal change of the reflection interference spectrum of the probe surface, and finally the binding kinetics constants of the antibodies were calculated. The kinetic constants of antigen and antibodies were measured at pH 7.4 and 5.6 in sodium dihydrogen phosphate-citrate buffer."}, "human TL1A (HuTL1A) [13]": {"molecular_target": "T1, human TL1A (HuTL1A)", "assay": "ELISA: biotin-HuTL1A on streptavidin plate, antibody diluted at pH 7.4, HRP-anti-human Fc, OD450", "procedure": "(§2) Corresponding antibodies were added to specific wells, and the antibodies were diluted with sodium dihydrogen phosphate-citrate buffer at pH 7.4, pH 6.0, pH 5.8, or pH 5.6. Binding assay was carried out at room temperature for 30 minutes. After the incubation, the excess antibodies were removed and the wells were washed by PBST. HRP-anti-Human Fc (Sino Biological) was then added into each well and incubated for 30 minutes to detect the bound antibody. The substrate TMB was finally added to develop color for 5-10 minutes. The color development reaction was terminated with 1M sulfuric acid. OD450 nm was recorded on a microplate reader, and the data were processed and fitted by 4 parameter logistic regression."}, "human TL1A (HuTL1A) [14]": {"molecular_target": "T1, human TL1A (HuTL1A)", "assay": "ELISA: biotin-HuTL1A on streptavidin plate, antibody diluted at pH 7.4, HRP-anti-human Fc, OD450", "procedure": "as §2", "remark": "listed apart in the source"}}, "note": "Like-named read-outs stand apart in the source and are kept apart here.", "data": [{"binder": "B1", "values": [{"measurement": "Kd", "setting": "human TL1A (HuTL1A) [1]", "result": 8.39, "unit": "nM"}, {"measurement": "Kd", "setting": "[2]", "result": 17.3, "unit": "nM"}, {"measurement": "Kd", "setting": "[3]", "result": 7.73, "unit": "nM"}, {"measurement": "Kd", "setting": "[4]", "result": 8.15, "unit": "nM"}, {"measurement": "Kd", "setting": "[5]", "result": 7.82, "unit": "nM"}, {"measurement": "Kd", "setting": "[6]", "result": 6.65, "unit": "nM"}, {"measurement": "Kd", "setting": "[7]", "result": 11.6, "unit": "nM"}, {"measurement": "Kd", "setting": "[8]", "result": 5850, "unit": "nM"}, {"measurement": "Kd", "setting": "[9]", "result": 12100, "unit": "nM"}, {"measurement": "Kd", "setting": "human TL1A (HuTL1A) [10]", "result": 5.92, "unit": "nM"}, {"measurement": "koff", "setting": "human TL1A (HuTL1A) [10]", "result": 0.00353, "unit": "s⁻¹"}, {"measurement": "kon", "setting": "human TL1A (HuTL1A) [10]", "result": 596000, "unit": "M⁻¹ s⁻¹"}, {"measurement": "Kd", "setting": "[11]", "result": 6.09, "unit": "nM"}, {"measurement": "koff", "setting": "[11]", "result": 0.00375, "unit": "s⁻¹"}, {"measurement": "kon", "setting": "[11]", "result": 616000, "unit": "M⁻¹ s⁻¹"}, {"measurement": "Kd", "setting": "human TL1A (HuTL1A) [12]", "result": 5.62, "unit": "nM"}, {"measurement": "koff", "setting": "human TL1A (HuTL1A) [12]", "result": 0.00214, "unit": "s⁻¹"}, {"measurement": "kon", "setting": "human TL1A (HuTL1A) [12]", "result": 381000, "unit": "M⁻¹ s⁻¹"}, {"measurement": "EC50 (read off the curve)", "setting": "human TL1A (HuTL1A) [13]", "result": "~0.6", "unit": "nM"}, {"measurement": "EC50 (read off the curve)", "setting": "human TL1A (HuTL1A) [14]", "result": "~0.6", "unit": "nM"}]}]}
